In patent publication CN116041496A:

Biological target: H7N9亚型禽流感病毒血凝素(HA)，野生型病毒上 (H7N9亚型禽流感病毒)
Assay: cell-based or functional assay

B1: H7N9-NeuAb (antibody, V domains shown)
VH: QVQLQQPRAELVMPGASVRMSCQASGYTFTDFWIHWVKQRPGQGLEWIGAIDTSDSYTTYNQNFRGKASLTVDESSSTAYMQLSSLTSEDSAVYYCARLDDGFYNYAMDYWGQGTSVTVSS
VL: NIMMTQSPSSLAVSAGEKVTLNCKSSQSVLNSSNQKNYLAWYQQRPGQSPKLLIYWASTREAGVPDRFTGSGSGTDFTLTISSVKAEDLAVYYCHQYLSSYTFGGGTKLKIK
  HI 终点浓度: 1.5 µg/mL
  HI效价: 512
  中和 终点浓度: 0.15 µg/mL
  中和效价: 5120
